Measured values published in PMC11259845, “Potent anti-coronaviral activity of pateamines and new insights into their mode of action”.

B1: (AG)5 (ssRNA)
RNA: AGAGAGAGAG
B2: (GA)5 (ssRNA)
RNA: GAGAGAGAGA
B3: (UG)5 (ssRNA)
RNA: UGUGUGUGUG

Tests used:
Settings in all cases: protein: recombinant; tags: N-terminal 6xHis, thrombin site
eIF4A1(19-406) WT [1] = target: T1, eIF4A1(19-406) WT (human, UniProt P60842 19-406); test: thermal shift assay; PatA, AMP-PNP, 5 mM Mg2+; TSA: 5 uM eIF4A1(19-406), 50 uM RNA, 1 mM AMP-PNP, 100 uM inhibitor, 75 uM SYPRO Orange, 20 mM HEPES-KOH pH 7.5, 100 mM KCl, 5 mM MgCl2, 1 mM DTT, 10% glycerol; melt 10-95 C
T1 sequence (P60842 19-406): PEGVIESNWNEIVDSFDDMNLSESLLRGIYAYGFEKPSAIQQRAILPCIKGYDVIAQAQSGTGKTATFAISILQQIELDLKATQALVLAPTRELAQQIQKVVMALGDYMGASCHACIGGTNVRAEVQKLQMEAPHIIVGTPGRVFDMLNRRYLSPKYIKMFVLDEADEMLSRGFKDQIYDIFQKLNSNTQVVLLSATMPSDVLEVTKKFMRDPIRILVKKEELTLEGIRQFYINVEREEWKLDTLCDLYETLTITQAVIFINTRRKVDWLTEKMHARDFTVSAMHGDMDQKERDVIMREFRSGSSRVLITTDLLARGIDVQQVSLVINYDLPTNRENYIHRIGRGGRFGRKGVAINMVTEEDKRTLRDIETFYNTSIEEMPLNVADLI

eIF4A1(19-406) WT [2] = target: T1, eIF4A1(19-406) WT; test: thermal shift assay; silvestrol, AMP-PNP, 5 mM Mg2+; TSA: 5 uM eIF4A1(19-406), 50 uM RNA, 1 mM AMP-PNP, 100 uM inhibitor, 75 uM SYPRO Orange, 20 mM HEPES-KOH pH 7.5, 100 mM KCl, 5 mM MgCl2, 1 mM DTT, 10% glycerol; melt 10-95 C
eIF4A1(19-406) WT [3] = target: T1, eIF4A1(19-406) WT; test: thermal shift assay; DMDAPatA, AMP-PNP, 5 mM Mg2+; TSA: 5 uM eIF4A1(19-406), 50 uM RNA, 1 mM AMP-PNP, 100 uM inhibitor, 75 uM SYPRO Orange, 20 mM HEPES-KOH pH 7.5, 100 mM KCl, 5 mM MgCl2, 1 mM DTT, 10% glycerol; melt 10-95 C

| Binder | binding result (eIF4A1(19-406) WT [1]) | binding result (eIF4A1(19-406) WT [2]) | binding result (eIF4A1(19-406) WT [3]) |
| --- | --- | --- | --- |
| B1 | binds | binds | – |
| B2 | binds | binds | – |
| B3 | binds | – | binds |
